From the supplement of paper PMC10567573

B1: RHOBTB3 (parent)
chain: KVVEAHKIVLCAVSHVFMLLFNVK
B2: P2RY14 (parent)
chain: KLLSVIVWMLMLLLAVPNIILTNQ

Variants of: B1
Experiment: protein stability index of a GFP-peptide fusion (GPS, HEK-293T) (PSI 1-6); higher = more stable
Settings: c terminus: a fixed tail appended
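Note: lentivirally expressed fusions sorted by FACS into six bins by GFP to DsRed ratio, PSI derived from sequencing read proportions per bin multiplied by bin number.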

Variant | protein stability index
PVVEAHKIVLCAVSHVFMLLFNVK | 3.1
TVVEAHKIVLCAVSHVFMLLFNVK | 2.71
QVVEAHKIVLCAVSHVFMLLFNVK | 1.9
RVVEAHKIVLCAVSHVFMLLFNVK | 2.68
YVVEAHKIVLCAVSHVFMLLFNVK | 2.58
LVVEAHKIVLCAVSHVFMLLFNVK | 3.15
AVVEAHKIVLCAVSHVFMLLFNVK | 3.06
WVVEAHKIVLCAVSHVFMLLFNVK | 3.19
GVVEAHKIVLCAVSHVFMLLFNVK | 2.31
IVVEAHKIVLCAVSHVFMLLFNVK | 2.87
EVVEAHKIVLCAVSHVFMLLFNVK | 3.04
FVVEAHKIVLCAVSHVFMLLFNVK | 4.17
DVVEAHKIVLCAVSHVFMLLFNVK | 4.55
HVVEAHKIVLCAVSHVFMLLFNVK | 2.2
SVVEAHKIVLCAVSHVFMLLFNVK | 2.46
CVVEAHKIVLCAVSHVFMLLFNVK | 3.06
NVVEAHKIVLCAVSHVFMLLFNVK | 2.52

Variant | protein stability index
KVCEAHKIVLCAVSHVFMLLFNVK | 2.3
KFVEAHKIVLCAVSHVFMLLFNVK | 2.5
KQVEAHKIVLCAVSHVFMLLFNVK | 2.04
KAVEAHKIVLCAVSHVFMLLFNVK | 2.96
KNVEAHKIVLCAVSHVFMLLFNVK | 2.44
KCVEAHKIVLCAVSHVFMLLFNVK | 2.18
KEVEAHKIVLCAVSHVFMLLFNVK | 2.64
KLVEAHKIVLCAVSHVFMLLFNVK | 2.32
KTVEAHKIVLCAVSHVFMLLFNVK | 2.6
KDVEAHKIVLCAVSHVFMLLFNVK | 2.57
KMVEAHKIVLCAVSHVFMLLFNVK | 2.9
KPVEAHKIVLCAVSHVFMLLFNVK | 3.44
KSVEAHKIVLCAVSHVFMLLFNVK | 3.24
KIVEAHKIVLCAVSHVFMLLFNVK | 3.58
KYVEAHKIVLCAVSHVFMLLFNVK | 1.86
KKVEAHKIVLCAVSHVFMLLFNVK | 1.62
KGVEAHKIVLCAVSHVFMLLFNVK | 2.64

Variants of: B2
Experiment: as above
Settings: c terminus: a fixed tail appended

Variant | protein stability index
KLLSVIVWMLMLLLACPNIILTNQ | 3.32
KLLSVIVWMLMLLLAPPNIILTNQ | 2.75
KLLSVIVWMLMLLLAGPNIILTNQ | 2.36
KLLSVIVWMLMLLLALPNIILTNQ | 3.59
KLLSVIVWMLMLLLASPNIILTNQ | 2.89
KLLSVIVWMLMLLLAHPNIILTNQ | 2.06
KLLSVIVWMLMLLLAQPNIILTNQ | 3.43
KLLSVIVWMLMLLLAFPNIILTNQ | 4.27
KLLSVIVWMLMLLLAMPNIILTNQ | 3.43
KLLSVIVWMLMLLLADPNIILTNQ | 2.52
KLLSVIVWMLMLLLATPNIILTNQ | 2.01
KLLSVIVWMLMLLLAEPNIILTNQ | 2.6
KLLSVIVWMLMLLLAIPNIILTNQ | 3.43
KLLSVIVWMLMLLLANPNIILTNQ | 3.98
KLLSVIVWMLMLLLAAPNIILTNQ | 2.77
KLLSVIVWMLMLLLAVPNIISTNQ | 2.57
KLLSVIVWMLMLLLAVPNIIPTNQ | 1.98
KLLSVIVWMLMLLLAVPNIIITNQ | 3.12
KLLSVIVWMLMLLLAVPNIIGTNQ | 3.21
KLLSVIVWMLMLLLAVPNIIATNQ | 3.89
KLLSVIVWMLMLLLAVPNIITTNQ | 3.22
KLLSVIVWMLMLLLAVPNIIDTNQ | 2.99
KLLSVIVWMLMLLLAVPNIIHTNQ | 2.2
KLLSVIVWMLMLLLAVPNIIFTNQ | 2.73
KLLSVIVWMLMLLLAVPNIINTNQ | 2.28
KLLSVIVWMLMLLLAVPNIIMTNQ | 2.96

Variant | protein stability index
KLLSVIVWMLMLLLAVPNIIRTNQ | 4.98
KLLSVIVWMLMLLLAVPNIIETNQ | 2.6
KLLSVIVWMLMLLLAVPNIICTNQ | 3.7
KLLSVIVWMLMLLLAVPNAILTNQ | 3.24
KLLSVIVWMLMLLLAVPNTILTNQ | 3.06
KLLSVIVWMLMLLLAVPNDILTNQ | 2.8
KLLSVIVWMLMLLLAVPNKILTNQ | 1.76
KLLSVIVWMLMLLLAVPNQILTNQ | 1.89
KLLSVIVWMLMLLLAVPNYILTNQ | 3.02
KLLSVIVWMLMLLLAVPNSILTNQ | 2.07
KLLSVIVWMLMLLLAVPNNILTNQ | 3.66
KLLSVIVWMLMLLLAVPNRILTNQ | 2.2
KLLSVIVWMLMLLLAVPNMILTNQ | 1.29
KLLSVIVWMLMLLLAVPNPILTNQ | 3.43
KLLSVIVWMLMLLLAVPNFILTNQ | 2.98
KLLSVIVWMLMLLLAVPNIILTFQ | 2.98
KLLSVIVWMLMLLLAVPNIILTHQ | 3.59
KLLSVIVWMLMLLLAVPNIILTGQ | 2.54
KLLSVIVWMLMLLLAVPNIILTAQ | 2.34
KLLSVIVWMLMLLLAVPNIILTEQ | 3.67
KLLSVIVWMLMLLLAVPNIILTTQ | 2.97
KLLSVIVWMLMLLLAVPNIILTIQ | 1
KLLSVIVWMLMLLLAVPNIILTCQ | 2.15
KLLSVIVWMLMLLLAVPNIILTYQ | 2.21
KLLSVIVWMLMLLLAVPNIILTMQ | 2.42
KLLSVIVWMLMLLLAVPNIILTDQ | 3.86

Variant | protein stability index
KLLSVIVWMLMLLLAVPNIILTKQ | 2.45
KLLSVIVWMLMLLLAVPNIILTVQ | 2.99
KLLSVIVWMLMLLLAVPNIILTRQ | 1.92
KLLSVIVWMLMLLLAVPNIILTWQ | 2.57
KLLSVIVWMLMLLGAVPNIILTNQ | 2.27
KLLSVIVWMLMLLDAVPNIILTNQ | 3.07
KLLSVIVWMLMLLTAVPNIILTNQ | 3.16
KLLSVIVWMLMLLNAVPNIILTNQ | 2.75
KLLSVIVWMLMLLSAVPNIILTNQ | 3.42
KLLSVIVWMLMLLHAVPNIILTNQ | 2.92
KLLSVIVWMLMLLPAVPNIILTNQ | 4.16
KLLSVIVWMLMLLVAVPNIILTNQ | 1.32
KLLSVIVWMLMLLKAVPNIILTNQ | 2.95
KLLSVIVWMLMLLMAVPNIILTNQ | 3.33
KLLSVIVWMLMLLEAVPNIILTNQ | 3.48
KLLSVIVWMLMLLIAVPNIILTNQ | 2.49
KLLSVIVWMLMLLWAVPNIILTNQ | 2.51
KLLSVIVWMLMLLLAVPNIILHNQ | 2.69
KLLSVIVWMLMLLLAVPNIILANQ | 2.75
KLLSVIVWMLMLLLAVPNIILMNQ | 2.38
KLLSVIVWMLMLLLAVPNIILLNQ | 2.2
KLLSVIVWMLMLLLAVPNIILINQ | 2.32
KLLSVIVWMLMLLLAVPNIILSNQ | 3.96
KLLSVIVWMLMLLLAVPNIILDNQ | 4.01
KLLSVIVWMLMLLLAVPNIILNNQ | 2.75
KLLSVIVWMLMLLLAVPNIILVNQ | 4.59

Variant | protein stability index
KLLSVIVWMLMLLLAVPNIILWNQ | 2.92
KLLSVIVWMLMLLLAVPNIILKNQ | 3.2
KLLSVIVWMLMLLLAVPNIILFNQ | 2.97
KLLSVIVWMLMLLLAVPNIILYNQ | 3.3
KLLSVIVWMLMLLLLVPNIILTNQ | 2.56
KLLSVIVWMLMLLLNVPNIILTNQ | 3.1
KLLSVIVWMLMLLLCVPNIILTNQ | 3.31
KLLSVIVWMLMLLLMVPNIILTNQ | 3.03
KLLSVIVWMLMLLLDVPNIILTNQ | 3.06
KLLSVIVWMLMLLLEVPNIILTNQ | 2.84
KLLSVIVWMLMLLLVVPNIILTNQ | 2.77
KLLSVIVWMLMLLLPVPNIILTNQ | 2.35
KLLSVIVWMLMLLLWVPNIILTNQ | 2.2
KLLSVIVWMLMLLLKVPNIILTNQ | 3.74
KLLSVIVWMLMLLLHVPNIILTNQ | 3.28
KLLSVIVWMLMLLLQVPNIILTNQ | 3.12
KLLSVIVWMLMLLLAVPNIILTNL | 3.08
KLLSVIVWMLMLLLAVPNIILTNR | 3.28
KLLSVIVWMLMLLLAVPNIILTNT | 2.81
KLLSVIVWMLMLLLAVPNIILTNH | 2.8
KLLSVIVWMLMLLLAVPNIILTNW | 2.33
KLLSVIVWMLMLLLAVPNIILTNC | 2.79
KLLSVIVWMLMLLLAVPNIILTNI | 2.79
KLLSVIVWMLMLLLAVPNIILTNG | 2.91
KLLSVIVWMLMLLLAVPNIILTND | 4.62
KLLSVIVWMLMLLLAVPNIILTNK | 2.6

Variant | protein stability index
KLLSVIVWMLMLLLAVPNIILTNV | 1.96
KLLSVIVWMLMLLLAVPNIILTNF | 2.69
KLLSVIVWMLMLLLAVPNIILTNP | 2.59
KLLSVIVWMLMLLLAVPNIILTNE | 2.74
KLLSVIVWMLMLLLAVPNIPLTNQ | 4.08
KLLSVIVWMLMLLLAVPNIKLTNQ | 3.1
KLLSVIVWMLMLLLAVPNICLTNQ | 1.86
KLLSVIVWMLMLLLAVPNISLTNQ | 3.35
KLLSVIVWMLMLLLAVPNIALTNQ | 2.31
KLLSVIVWMLMLLLAVPNIELTNQ | 3.69
KLLSVIVWMLMLLLAVPNINLTNQ | 2.31
KLLSVIVWMLMLLLAVPNILLTNQ | 2.52
KLLSVIVWMLMLLLAVPNIYLTNQ | 3.09
KLLSVIVWMLMLLLAVPNIDLTNQ | 3.27
KLLSVIVWMLMLLLAVPNIFLTNQ | 2.73
KLLSVIVWMLMLLLAVPNIVLTNQ | 2.79
KLLSVIVWMLMLLLAVLNIILTNQ | 2.97
KLLSVIVWMLMLLLAVENIILTNQ | 3
KLLSVIVWMLMLLLAVSNIILTNQ | 3.12
KLLSVIVWMLMLLLAVGNIILTNQ | 3.39
KLLSVIVWMLMLLLAVYNIILTNQ | 1.54
KLLSVIVWMLMLLLAVANIILTNQ | 2.56
KLLSVIVWMLMLLLAVWNIILTNQ | 1.98
KLLSVIVWMLMLLLAVQNIILTNQ | 2.82
KLLSVIVWMLMLLLAVDNIILTNQ | 2.68
KLLSVIVWMLMLLLAVVNIILTNQ | 1.23

Variant | protein stability index
KLLSVIVWMLMLLLAVINIILTNQ | 1.95
KLLSVIVWMLMLLLAVFNIILTNQ | 2.69
KLLSVIVWMLMLLLAVMNIILTNQ | 1.52
KLLSVIVWMLMLLLAVHNIILTNQ | 2.96
KLLSVIVWMLMLLLAVNNIILTNQ | 2.08
KLLSVIVWMLMLLLAVRNIILTNQ | 2.8
KLLSVIVWMLMLLLAVCNIILTNQ | 2.41
KLLSVIVWMLMLLLAVKNIILTNQ | 3.35
KLLSVIVWMLMLLLAVTNIILTNQ | 2.4
KLLSVIVWMLMLLLAVPEIILTNQ | 2.5
KLLSVIVWMLMLLLAVPIIILTNQ | 2.63
KLLSVIVWMLMLLLAVPCIILTNQ | 2.1
KLLSVIVWMLMLLLAVPLIILTNQ | 1.65
KLLSVIVWMLMLLLAVPFIILTNQ | 2.16
KLLSVIVWMLMLLLAVPVIILTNQ | 1.58
KLLSVIVWMLMLLLAVPYIILTNQ | 2.09
KLLSVIVWMLMLLLAVPHIILTNQ | 3.81
KLLSVIVWMLMLLLAVPRIILTNQ | 1.49
KLLSVIVWMLMLLLAVPTIILTNQ | 2.89
KLLSVIVWMLMLLLAVPKIILTNQ | 2.59
KLLSVIVWMLMLLLAVPPIILTNQ | 2.78
KLLSVIVWMLMLLLAVPWIILTNQ | 1.92
KLLSVIVWMLMLLLAVPGIILTNQ | 3.62
KLLSVIVWMLMLLLAVPAIILTNQ | 1.99
